{"source": "patent US20050196403A1", "key": {"[1]": {"target": "HLA-A*0201 (Human)", "test": "competition vs 125I standard peptide, purified HLA"}, "[2]": {"target": "HLA-A*2401 (human)", "test": "competition with 125I probe peptide, purified HLA class I"}, "[3]": {"target": "HLA-A*0301 (Human)"}, "[4]": {"target": "HLA-A*2401 (Human)"}, "[5]": {"target": "HLA-A*0201 (Human)", "test": "competition vs 125I probe, purified HLA"}, "[6]": {"target": "HLA-A*0203 (Human)", "test": "competition vs 125I probe, purified HLA"}, "[7]": {"target": "HLA-A*0206 (Human)", "test": "competition vs 125I probe, purified HLA"}, "[8]": {"target": "HLA-A*0202 (Human)", "test": "competition vs 125I probe, purified HLA"}}, "note": "pIC50: −log10 of the molar value."}
{"substance": "EALELKDA (peptide)", "values": [{"measurement": "binding affinity ratio (ratio to standard peptide)", "setting": "[1]", "result": -0.0002}]}
{"substance": "ELNEALEL (peptide)", "values": [{"measurement": "binding affinity ratio (ratio to standard peptide)", "setting": "[1]", "result": -0.0002}]}
{"substance": "PLDGEYFT (peptide)", "values": [{"measurement": "binding affinity ratio (ratio to standard peptide)", "setting": "[1]", "result": -0.0002}]}
{"substance": "RFEMFREL (p53 position 337) (peptide)", "values": [{"measurement": "binding affinity ratio (standard IC50 / test IC50)", "setting": "[2]", "result": -0.0004}]}
{"substance": "TFSDLWKL (p53 position 18) (peptide)", "values": [{"measurement": "binding affinity ratio (standard IC50 / test IC50)", "setting": "[2]", "result": 0.0016}]}
{"substance": "p53 peptide HMTEVVRR (position 168)", "values": [{"measurement": "binding affinity ratio (IC50 of standard peptide/IC50 of test peptide)", "setting": "[3]", "result": 0.0046}]}
{"substance": "p53 peptide RFEMFREL (position 337, 8 amino acids)", "values": [{"measurement": "binding affinity ratio (IC50 of standard peptide/IC50 of test peptide)", "setting": "[4]", "result": -0.0004}]}
{"substance": "p53 peptide SYGFRLGF (position 106, 8 amino acids)", "values": [{"measurement": "binding affinity ratio (IC50 of standard peptide/IC50 of test peptide)", "setting": "[4]", "result": 0.028}]}
{"substance": "p53 peptide TFSDLWKL (position 18, 8 amino acids)", "values": [{"measurement": "binding affinity ratio (IC50 of standard peptide/IC50 of test peptide)", "setting": "[4]", "result": 0.0016}]}
{"substance": "p53 peptide TYQGSYGF (position 102, 8 amino acids)", "values": [{"measurement": "binding affinity ratio (IC50 of standard peptide/IC50 of test peptide)", "setting": "[4]", "result": 0.11}]}
{"substance": "p53 peptide … (position 102, 10 amino acids)", "values": [{"measurement": "binding affinity ratio (IC50 of standard peptide/IC50 of test peptide)", "setting": "[4]", "result": 0.12}]}
{"substance": "p53 peptide … (position 106, 9 amino acids)", "values": [{"measurement": "binding affinity ratio (IC50 of standard peptide/IC50 of test peptide)", "setting": "[4]", "result": 0.02}]}
{"substance": "p53 peptide … (position 117, 10 amino acids)", "values": [{"measurement": "binding affinity ratio (IC50 of standard peptide/IC50 of test peptide)", "setting": "[4]", "result": 0.0001}]}
{"substance": "p53 peptide … (position 125, 10 amino acids)", "values": [{"measurement": "binding affinity ratio (IC50 of standard peptide/IC50 of test peptide)", "setting": "[4]", "result": 5.1}]}
{"substance": "p53.69 AAPPVAPA (peptide)", "values": [{"measurement": "pIC50", "setting": "[5]", "result": 5.30}]}
{"substance": "p53.129B7V9 ALNKMFBQV (peptide)", "values": [{"measurement": "pIC50", "setting": "[6]", "result": 7.64}, {"measurement": "pIC50", "setting": "[7]", "result": 7.31}]}
{"substance": "p53.135B1B7 BQLAKTBPV (peptide)", "values": [{"measurement": "pIC50", "setting": "[8]", "result": 7.15}, {"measurement": "pIC50", "setting": "[6]", "result": 7.82}, {"measurement": "pIC50", "setting": "[7]", "result": 7.17}]}
{"substance": "p53.135B1L2B7 BLLAKTBPV (peptide)", "values": [{"measurement": "pIC50", "setting": "[5]", "result": 7.34}, {"measurement": "pIC50", "setting": "[6]", "result": 8.11}, {"measurement": "pIC50", "setting": "[7]", "result": 7.19}]}
